Results: US20250369024A1, “Acyloin Condensation Reactions, Enzymes, and Products Thereof” (Mojia Biotech Pte. Ltd., priority 2023, published 2025)

Key:
AC440 = test: Tolerance of 2HIB in AC440; assay type: cell-based, E. coli; settings: M9-LB; cell density at 600 nm
Method: To check the tolerance of 2HIB, AC440 was grown in 5 mL of M9-LB supplemented with different concentration of 2HIB in 50 mL falcon tube, the cell density was monitored at 600 nm. The impact on growth could be observed at 25 g/L of 2HIB, while the AC440 is still able to grow and maintain its metabolic activity at the concentration of 2HIB at 75 g/L (FIG. 21), considering the cells will not suffer such high concentration of 2HIB at early stage, indicating AC440 is a good host for 2HIB production.

2-hydroxyisobutyryl-CoA = test: In vitro purified enzyme isobutene glycol production from acetone and formate, ACR comparison; assay type: biochemical; settings: 1 μM ACR and 1 μM FucO; 50 mM formate and 200 mM acetone
Method: The enzymes acyl-CoA transferase CaAbfT, HACS ApbHACS, acyl-CoA reductase ACR (LmACR, BmACDH, PtACDH, RpPduP, StEutE), and NADH-dependent alcohol dehydrogenase FucO were overexpressed and purified as described above. In vitro purified enzyme reactions for condensation of acetone and formyl-CoA was comprised of 100 mM KPi pH 7.4, 10 mM MgCl2, 0.15 mM TPP, 4 mM NADH, 2 mM acetyl-CoA, 1 μM ApbHACL, 2 μM CaAbfT, 50 mM formate and 200 mM acetone. The mixture was incubated at 30° C. for 3 min, and then 1 μM ACR and 1 μM FucO was added, and then the reactions were incubated at 30° C. for another 5 min unless otherwise specified. 2 μL of 10 M NaOH was added to 45 μL mixture for 30 min, followed by 3 μL 10 N H2SO4, and then applied for HPLC analysis as described above.

formate = test: Screening of formate activation enzymes with acetone and formate using growing cultures (2HIB); assay type: cell-based, E. coli; settings: 100 mM acetone and 20 mM formate; growing cells
Source text: Since formate activation is a required step for formate utilization, we further evaluated enzymes catalyzing this reaction. Acyl-CoA synthetase (ACS) enzymes are one of the three explored routes for formate activation, which can directly generate formyl-CoA from formate with the consumption of 2 ATP equivalents (ATP is converted to AMP). […] Therefore, ACS variants were further evaluated using the new established growing cell platform with ApbHACS overexpression. In this platform, formyl-CoA generated through formate activation enzymes is further condensed with non-toxic substrate acetone to produce 2-hydroxyisobutyrate (2HIB) (FIG. 23C).
The screening of a larger group of formate activation enzymes in actively growing cells was conducted using the M9-LB medium contains 6.78 g/L Na2HPO4, 3 g/L KH2PO4, 1 g/L NH4Cl, 0.5 g/L NaCl, 2 mM MgSO4, 100 μM CaCl2), 15 μM thiamine-HCl, 10 g/L tryptone, and 5 g/L yeast extract additionally supplemented with the micronutrient solution of Neidhardt^68. […] The cells were pelleted by centrifugation and the supernatant analyzed by HPLC as described below. The expected product 2-hydroxyisobutyric acid was detected in the media indicating the performance of corresponding formate activation enzymes. […]

glyoxylate = test: Growth-coupled selection of alanine dehydrogenases in glycine auxotroph strain; assay type: cell-based, E. coli; settings: glycolate instead of glycine supplementation

With CC(C)(O)C(=O)O [2HIB, 2-hydroxyisobutyric acid] as the molecule, how does the “2HIB concentration at which AC440 is still able to grow and maintain metabolic activity” value (AC440) read?
Its value is 75 g/L.

What about the “2HIB concentration at which impact on growth could be observed” value (AC440) of the same molecule?
Its value is 25 g/L.

B1: StEutE: acyl-CoA reductase, Salmonella typhymurium, Uniprot P41793 (protein, UniProt P41793 1-467, looked up)
Acetaldehyde dehydrogenase …: MNQQDIEQVVKAVLLKMKDSSQPASTVHEMGVFASLDDAVAAAKRAQQGLKSVAMRQLAIHAIREAGEKHARELAELAVSETGMGRVDDKFAKNVAQARGTPGVECLSPQVLTGDNGLTLIENAPWGVVASVTPSTNPAATVINNAISLIAAGNSVVFAPHPAAKKVSQRAITLLNQAVVAAGGPENLLVTVANPDIETAQRLFKYPGIGLLVVTGGEAVVDAARKHTNKRLIAAGAGNPPVVVDETADLPRAAQSIVKGASFDNNIICADEKVLIVVDSVADELMRLMEGQHAVKLTAAQAEQLQPVLLKNIDERGKGTVSRDWVGRDAGKIAAAIGLNVPDQTRLLFVETPANHPFAVTEMMMPVLPVVRVANVEEAIALAVQLEGGCHHTAAMHSRNIDNMNQMANAIDTSIFVKNGPCIAGLGLGGEGWTTMTITTPTGEGVTSARTFVRLRRCVLVDAFRIV
With B1 as the molecule, how does the “performance in isobutene glycol production” value (2-hydroxyisobutyryl-CoA) read?
The value was “best performance”.

B2: OfFrc: acyl-CoA transferase (ACT), Oxalobacter formigenes, Uniprot O06644 (protein, UniProt O06644 2-428, looked up)
Formyl-CoA:oxalate …: TKPLDGINVLDFTHVQAGPACTQMMGFLGANVIKIERRGSGDMTRGWLQDKPNVDSLYFTMFNCNKRSIELDMKTPEGKELLEQMIKKADVMVENFGPGALDRMGFTWEYIQELNPRVILASVKGYAEGHANEHLKVYENVAQCSGGAAATTGFWDGPPTVSGAALGDSNSGMHLMIGILAALEMRHKTGRGQKVAVAMQDAVLNLVRIKLRDQQRLERTGILAEYPQAQPNFAFDRDGNPLSFDNITSVPRGGNAGGGGQPGWMLKCKGWETDADSYVYFTIAANMWPQICDMIDKPEWKDDPAYNTFEGRVDKLMDIFSFIETKFADKDKFEVTEWAAQYGIPCGPVMSMKELAHDPSLQKVGTVVEVVDEIRGNHLTVGAPFKFSGFQPEITRAPLLGEHTDEVLKELGLDDAKIKELHAKQVV
For B2, which “performance on formate activation (2HIB)” value (formate) is on record?
The value was “better performance”.

B3: BsAld: alanine dehydrogenase from Bacillus subtilis, Uniprot Q08352 (protein, UniProt Q08352 1-378, looked up)
Alanine dehydrogenase: MIIGVPKEIKNNENRVALTPGGVSQLISNGHRVLVETGAGLGSGFENEAYESAGAEIIADPKQVWDAEMVMKVKEPLPEEYVYFRKGLVLFTYLHLAAEPELAQALKDKGVTAIAYETVSEGRTLPLLTPMSEVAGRMAAQIGAQFLEKPKGGKGILLAGVPGVSRGKVTIIGGGVVGTNAAKMAVGLGADVTIIDLNADRLRQLDDIFGHQIKTLISNPVNIADAVAEADLLICAVLIPGAKAPTLVTEEMVKQMKPGSVIVDVAIDQGGIVETVDHITTHDQPTYEKHGVVHYAVANMPGAVPRTSTIALTNVTVPYALQIANKGAVKALADNTALRAGLNTANGHVTYEAVARDLGYEYVPAEKALQDESSVAGA
How did the “growth of glycine auxotroph strain with glycolate” value (glyoxylate) turn out when B3 was run?
The value was “started to grow”.
